Data as given in article PMC8983440.

Molecular target: IFN-receptor expressed by 38C13 cells (mouse (endogenous in 38C13)) (UniProt P33896)
Assay: radioligand binding

UniProt P33896, sequence (P33896 27-590, chain 1 of 2): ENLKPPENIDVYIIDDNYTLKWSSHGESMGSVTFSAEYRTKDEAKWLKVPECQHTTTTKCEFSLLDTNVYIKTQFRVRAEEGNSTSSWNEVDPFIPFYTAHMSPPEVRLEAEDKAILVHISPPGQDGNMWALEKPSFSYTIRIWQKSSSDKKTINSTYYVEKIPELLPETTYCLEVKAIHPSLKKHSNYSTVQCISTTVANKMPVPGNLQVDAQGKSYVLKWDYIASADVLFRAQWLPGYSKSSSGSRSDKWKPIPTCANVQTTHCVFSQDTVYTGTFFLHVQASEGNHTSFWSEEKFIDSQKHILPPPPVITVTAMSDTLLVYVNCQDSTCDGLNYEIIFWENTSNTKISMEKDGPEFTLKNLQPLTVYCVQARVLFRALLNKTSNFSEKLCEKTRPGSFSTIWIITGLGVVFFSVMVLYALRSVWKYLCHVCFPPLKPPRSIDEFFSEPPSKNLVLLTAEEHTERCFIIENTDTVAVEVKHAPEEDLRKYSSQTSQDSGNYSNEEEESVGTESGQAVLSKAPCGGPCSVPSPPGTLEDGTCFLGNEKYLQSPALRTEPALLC
UniProt P33896, sequence (O35664 22-513, chain 2 of 2, further chain): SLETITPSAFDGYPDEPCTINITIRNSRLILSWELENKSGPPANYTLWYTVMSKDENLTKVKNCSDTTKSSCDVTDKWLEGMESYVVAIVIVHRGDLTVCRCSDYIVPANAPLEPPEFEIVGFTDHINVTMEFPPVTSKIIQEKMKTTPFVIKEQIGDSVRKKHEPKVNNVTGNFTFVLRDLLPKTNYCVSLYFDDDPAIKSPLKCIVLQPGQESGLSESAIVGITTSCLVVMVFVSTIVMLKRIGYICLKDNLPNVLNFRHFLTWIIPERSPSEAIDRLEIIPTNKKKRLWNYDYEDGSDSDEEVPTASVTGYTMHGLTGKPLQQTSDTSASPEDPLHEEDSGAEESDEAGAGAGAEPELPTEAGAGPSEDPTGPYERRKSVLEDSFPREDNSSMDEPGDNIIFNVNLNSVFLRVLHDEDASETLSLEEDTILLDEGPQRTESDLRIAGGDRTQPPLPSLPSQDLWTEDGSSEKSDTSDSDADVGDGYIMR

- percent cell-bound activity: 44.6%
Substance: anti-CD20 rituximab-murine IFNα1 fusion protein (from UniProt P01572 24-189)
